For assay [1], the system named is 3T3-L1 cells. The assay can be described thus: Expression of adipocyte markers by quantitative real-time PCR. Format: cell-based, mouse. Conditions: day 12. The procedure: The cells cultured in schedules A-D shown in FIG. 13 were recovered on day 10 from the start of the differentiation induction stimulation (day 12), and expression of adipocyte markers (C/EBPα, PPARγ1, PPARγ2, CD36, Glut4) at mRNA level was measured using 7500 Fast Real-Time PCR system (Invitrogen; CA, USA) by ΔΔCT method.
On the technique in general: Quantitative PCR measures a nucleic acid by following its amplification.

The subject of assay [2] is differentiated 3T3-L1 cells. The experiment in a line: Lipid droplet fusion in differentiated 3T3-L1 cells, oil-red-O. Format: cell-based, mouse. The settings on record: rAIM 5 μg/ml. The procedure: The differentiated 3T3-L1 cells were loaded with rAIM (5 μg/ml) according to the schedule shown in FIG. 13, E. The oil-red-0 staining was performed before and after rAIM loading.
The relative size of lipid droplet (Relative droplet size) was determined from an average diameter of 50 lipid droplets. […] The number of cells containing lipid droplets per unit area was measured in 5 different fields and the average was determined.

The subject of assay [3] is 3T3-L1 adipocytes. The assay can be described thus: Glycerol and free fatty acid released in culture supernatant. In kind it is cell-based, mouse. The settings on record: rAIM 5 μg/ml, day 2, day 4, day 6. Here is the method: rAIM was loaded (5 μg/ml) on 3T3-L1 adipocytes, the amount of glycerol or free fatty acid released in the culture supernatant was measured on day 2, day 4, and day 6. After rAIM loading, the cells were washed twice with PBS, and incubated in a serum-free medium (FreeStyle™ 293 Expression Medium; Invitrogen) for 5 hr. The buffer was recovered, and the measurement was performed using a glycerol assay kit and a fatty acid assay kit (both Bio Vision Inc.) and according to the manual.

Assay [4] relates to 3T3-L1 adipocytes. The assay can be described thus: Expression of lipid droplet formation-related genes and PREF-1 by real-time PCR. Format: cell-based, mouse. The settings on record: rAIM 5 μg/ml. Here is the method:
rAIM was loaded (5 μg/ml) on 3T3-L1 adipocytes, mRNA of lipid droplet formation-related genes (FSP27, Perilipin, and Adipophilin) was measured on day 2, day 4, and day 6 using 7500 Fast Real-Time PCR system (Invitrogen; CA, USA) and by the ΔΔCT method (each n=3).
Similarly, mRNA of PREF-1 of preadipocyte marker was also measured. The measurement value was standardized with GAPDH.
Relative expression level was determined with that on day 0 as 1.0.

The subject of assay [5] is FAS. The assay can be described thus: Co-immunoprecipitation of AIM-HA and FLAG-FAS or FAS domains in HEK 293T cells. Conditions: Flag-labeled FAS domains in HEK293T cells stably expressing AIM-HA. In kind it is binding. The text has this: (§1) In HEK 293T cells, rAIM labeled with HA-tag and FAS labeled with FLAG-tag were co-expressed, and the binding of AIM and FAS was confirmed by co-immunoprecipitation using an anti-Flag antibody or anti-HA antibody.
(§2) Then, the AIM binding region in FAS was examined. FAS contains 8 domains of keto acyl synthase (KS), malonyl/acetyl transferase (MAT), dehydrase (DH), central core (CC), enoylreductase (ER), keto reductase (KR), acylcarrier protein (ACP) and thioesterase (TE).
(§3) The N-terminal of each domain of FAS was labeled with Flag sequence, and expressed in HEK293T cells where AIM-HA is stably expressed. The binding of AIM-HA and each domain of FAS was confirmed by co-immunoprecipitation using an anti-Flag antibody or anti-HA antibody.
(§4) The sequence encoding full-length FAS cDNA (nucleotide: +1-7515) labeled with FLAG-tag was constructed using a part of the cDNA clone provided by Dr. Ohara (Kazusa DNA Research Institute) and some fragments cloned by RT-PCR and pFLAG-CMV2 vector (Sigma).
(§5) A cDNA fragment encoding KS, MAT, DH, CC, ER, KR, ACP or TE was prepared by subcloning to pFLAG-CMV2 vector by using full-length FAS cDNA as a template.

The subject of assay [6] is AIM-/- mice. The experiment in a line: mRNA level of markers in visceral fat tissue by QPCR. Format: in vivo, mouse. Conditions: rAIM administration group relative to BSA group, standardized with GAPDH. The procedure:
The mRNA level of adipocyte marker, preadipocyte marker, and lipid droplet formation-related genes in the RNA extracted from visceral fat tissue of the mice of the rAIM administration group and BSA administration group was measured by QPCR. The measurement values were standardized with the measurement values of GAPDH, and shown by an expression level relative to that of the adipose tissue administered with BSA.

Assay [7] addresses T1, FAS (Mus musculus, UniProt P19096). The assay can be described thus: FAS enzyme activity of treated 3T3-L1 adipocytes. In kind it is cell-based. Also on record: endogenous in cells; host or cells: 3T3-L1 adipocytes (treated cells, then lysed). The settings on record: 3T3-L1 adipocytes, rAIM 5 μg/ml, 6 days. Here is the method:
The influence of AIM on FAS activity of adipocyte or adipose tissue was examined. FAS activity was measured by the method of Kelley (Kelley et al., Biochem. J., 1986, 235:87-90) with slight modification. 3T3-L1 adipocytes, or lysates of adipose tissue of obese mice was mixed with acetyl-CoA and NADPH (0.2 M […] phosphate buffer [pH 7.0] containing 0.4 mM EDTA), and the mixture was placed in a spectrophotometer cuvette and maintained at 30° C. 20 μl of malonyl-CoA solution (0.2 mM) was added to start an enzyme reaction and decrease of OD was measured at a chart speed 2 cm/min. Based on the results, the enzyme activity of FAS was evaluated using the molar extinction coefficient of […] NADPH as 6220.
First, the FAS activity of 3T3-L1 cells treated for 6 days in the presence or absence of rAIM (5 μg/ml), and in the presence of C75 (25 μM) was measured. Moreover, the FAS activity of adipose tissues of AIM^+/+ mice and AIM^−/− mice and the FAS activity of adipose tissue of AIM^−/− mice administered with rAIM or BSA 3 hr before by intraadipose topical injection are shown in FIGS. 28 and 29, respectively.
All mice were fed with HFD for 20 weeks. The samples were dissolved (lysed) and the FAS activity was measured. The data was converted to that based on FAS protein, according to the results of WB performed using the same sample.

For assay [8], the target named is T1, FAS. The experiment in a line: Co-immunoprecipitation of AIM-HA and FLAG-FAS or FAS domains in HEK 293T cells. Format: binding. On the set-up: expressed in transfected cells; host or cells: HEK 293T cells co-expressing AIM-HA. The settings on record: HEK 293T cells co-expressing HA-tag rAIM and FLAG-tag FAS.
Source text: as §1, §2, §3, §4, §5

T1 sequence (P19096 whole entry): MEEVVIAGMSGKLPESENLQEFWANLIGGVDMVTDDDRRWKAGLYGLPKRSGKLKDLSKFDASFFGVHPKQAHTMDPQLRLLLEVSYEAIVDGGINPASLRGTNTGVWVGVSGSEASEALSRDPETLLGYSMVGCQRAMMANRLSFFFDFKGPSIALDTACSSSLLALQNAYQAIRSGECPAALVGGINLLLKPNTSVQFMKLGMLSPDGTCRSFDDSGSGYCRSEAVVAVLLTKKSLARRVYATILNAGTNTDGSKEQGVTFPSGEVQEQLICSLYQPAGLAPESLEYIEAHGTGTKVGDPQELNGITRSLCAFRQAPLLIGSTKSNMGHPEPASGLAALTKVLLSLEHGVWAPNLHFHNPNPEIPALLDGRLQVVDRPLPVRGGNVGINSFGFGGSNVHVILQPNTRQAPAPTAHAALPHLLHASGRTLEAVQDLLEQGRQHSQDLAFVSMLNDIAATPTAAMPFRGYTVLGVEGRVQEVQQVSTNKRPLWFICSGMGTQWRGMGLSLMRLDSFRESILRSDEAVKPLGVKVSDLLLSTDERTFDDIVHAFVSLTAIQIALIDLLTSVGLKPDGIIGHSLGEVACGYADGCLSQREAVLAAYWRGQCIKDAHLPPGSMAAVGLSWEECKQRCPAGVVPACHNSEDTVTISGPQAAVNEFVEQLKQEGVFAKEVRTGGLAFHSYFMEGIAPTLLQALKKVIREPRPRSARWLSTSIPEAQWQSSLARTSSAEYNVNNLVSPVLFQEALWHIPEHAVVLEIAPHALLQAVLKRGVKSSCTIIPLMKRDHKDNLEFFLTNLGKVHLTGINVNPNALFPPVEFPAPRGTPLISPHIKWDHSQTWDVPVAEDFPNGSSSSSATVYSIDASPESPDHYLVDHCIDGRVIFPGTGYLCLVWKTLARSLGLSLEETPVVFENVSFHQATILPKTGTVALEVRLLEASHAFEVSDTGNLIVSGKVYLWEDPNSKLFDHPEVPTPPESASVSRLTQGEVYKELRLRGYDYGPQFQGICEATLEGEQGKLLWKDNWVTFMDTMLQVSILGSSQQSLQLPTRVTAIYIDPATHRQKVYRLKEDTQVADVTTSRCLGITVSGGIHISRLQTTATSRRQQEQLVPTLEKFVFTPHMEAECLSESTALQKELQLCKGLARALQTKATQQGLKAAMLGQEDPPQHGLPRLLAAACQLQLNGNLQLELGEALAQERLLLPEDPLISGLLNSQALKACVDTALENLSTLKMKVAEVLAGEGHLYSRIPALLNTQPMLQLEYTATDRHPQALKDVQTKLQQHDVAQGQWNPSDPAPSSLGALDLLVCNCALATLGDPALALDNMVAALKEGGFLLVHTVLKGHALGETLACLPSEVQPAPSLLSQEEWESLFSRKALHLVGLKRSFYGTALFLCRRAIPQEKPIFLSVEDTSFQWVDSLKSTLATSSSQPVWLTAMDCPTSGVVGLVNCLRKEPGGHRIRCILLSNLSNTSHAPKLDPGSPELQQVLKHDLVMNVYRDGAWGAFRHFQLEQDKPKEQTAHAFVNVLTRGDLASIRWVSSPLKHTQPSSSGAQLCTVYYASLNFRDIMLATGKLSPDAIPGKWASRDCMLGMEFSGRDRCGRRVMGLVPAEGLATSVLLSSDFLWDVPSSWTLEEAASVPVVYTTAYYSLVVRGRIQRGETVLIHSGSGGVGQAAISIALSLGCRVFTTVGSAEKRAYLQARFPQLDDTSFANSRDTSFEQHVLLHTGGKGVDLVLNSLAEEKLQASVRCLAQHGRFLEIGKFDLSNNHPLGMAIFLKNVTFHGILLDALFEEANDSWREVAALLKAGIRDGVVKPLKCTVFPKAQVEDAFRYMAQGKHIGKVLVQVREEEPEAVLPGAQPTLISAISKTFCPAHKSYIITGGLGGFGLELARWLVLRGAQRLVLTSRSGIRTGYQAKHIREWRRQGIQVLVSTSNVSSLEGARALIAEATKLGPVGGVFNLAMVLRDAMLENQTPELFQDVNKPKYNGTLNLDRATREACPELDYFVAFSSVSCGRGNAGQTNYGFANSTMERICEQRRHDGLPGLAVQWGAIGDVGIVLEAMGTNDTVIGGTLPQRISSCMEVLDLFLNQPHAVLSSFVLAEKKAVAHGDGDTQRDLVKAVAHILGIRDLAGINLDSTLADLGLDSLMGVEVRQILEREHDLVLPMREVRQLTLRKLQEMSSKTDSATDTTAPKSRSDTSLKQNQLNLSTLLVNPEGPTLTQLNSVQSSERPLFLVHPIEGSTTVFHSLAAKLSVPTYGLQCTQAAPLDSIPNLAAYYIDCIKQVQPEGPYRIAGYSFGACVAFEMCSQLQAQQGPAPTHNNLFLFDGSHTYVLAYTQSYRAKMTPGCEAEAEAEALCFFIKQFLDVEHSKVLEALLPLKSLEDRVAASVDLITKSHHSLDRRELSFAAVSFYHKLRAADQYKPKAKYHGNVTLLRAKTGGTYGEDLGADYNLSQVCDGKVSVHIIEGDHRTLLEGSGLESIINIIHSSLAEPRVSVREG

B1: rAIM: recombinant AIM protein (rAIM) of mouse, HA-tagged, prepared in HEK293T cells (protein)
chain: ESPTKVQLVGGAHRCEGRVEVEHNGQWGTVCDDGWDRRDVAVVCRELNCGAVIQTPRGASYQPPASEQRVLIQGVDCNGTEDTLAQCELNYYVFDCSHEEDAGAQCENPDSDLLFIPEDVRLVDGPGHCQGRVEVLHQSQWSTVCKAGWNLQVSKVVCRQLGCGRALLTYGSCNKNTQGKGPIWMGKMSCSGQEANLRSCLLSRLENNCTHGEDTWMECEDPFELKLVGGDTPCSGRLEVLHKGSWGSVCDDNWGEKEDQVVCKQLGCGKSLHPSPKTRKIYGPGAGRIWLDDVNCSGKEQSLEFCRHRLWGYHDCTHKEDVEVICTDFDV
modifications: left off: small tags and cut ends
notes: recombinant AIM protein (rAIM) of mouse, HA-tagged, prepared in HEK293T cells
For B1, in assay [1] (schedule B), the “expression of adipocyte markers (C/EBPα, PPARγ1, PPARγ2, CD36, Glut4) mRNA” value (“expression of adipocyte markers” for short) is recorded as “suppressed”. Also, the “expression of adipocyte markers” value in assay [1] (schedule D as printed, AIM administered simultaneously with differentiation induction stimulation) was “suppressed”. Further, the “expression of adipocyte markers” value in assay [1] (schedule D, AIM only before differentiation induction) is reported as “expressed”. For the same molecule, in assay [2] (6 days), the “number of lipid droplet-containing cells per unit area” value is listed as “significantly decreased” and the “relative size of lipid droplets” value is given as “significantly decreased”. In assay [2] (6 days of culture), the “lipid droplet in the cell (oil-red-O)” value is “markedly decreased”. Besides, in assay [3], the “amount of free fatty acids in the culture supernatant” value is listed as “significantly increased” and the “amount of glycerol in the culture supernatant” value is “significantly increased”. In addition, the “expression of lipid droplet formation-related genes (FSP27, Perilipin, Adipophilin)” value in assay [4] (day 2, relative to day 0) was “decreased markedly”. Further, the “expression of preadipocyte markers (PREF-1)” value in assay [4] (during rAIM treatment) is “did not increase”. The “FAS domains bound to AIM” value in assay [5] was “ER, DH, TE and CC”. Besides, in assay [6], the “mRNA level of Adipophilin in visceral fat” value is “low”, the “mRNA level of FSP27 in visceral fat” value is given as “low”, the “mRNA level of PREF-1 in visceral fat” value was “increased” and the “mRNA level of Perilipin in visceral fat” value is on record as “low”. In assay [6], the “mRNA of C/EBPα in visceral fat” value is listed as “did not show difference”, the “mRNA of GLUT4 in visceral fat” value is recorded as “did not show difference” and the “mRNA of PPARγ2 in visceral fat” value was “did not show difference”. Moreover, the FAS activity result in assay [7] is “markedly suppressed”. In addition, the “binding of AIM and FAS (co-immunoprecipitation)” value in assay [8] is “coprecipitated”.

The values are drawn from patent US20130115220A1, “METHOD FOR PREVENTION OR TREATMENT OF METABOLIC SYNDROME” (DAINIPPON SUMITOMO PHARMA CO., LTD., priority 2010, published 2013).
